Assay results from paper PMC4434323.

Tests used:
[1] = target: T1, ztf-19 (T27B1.2) (Caenorhabditis elegans) (UniProt Q22829)
T1 sequence: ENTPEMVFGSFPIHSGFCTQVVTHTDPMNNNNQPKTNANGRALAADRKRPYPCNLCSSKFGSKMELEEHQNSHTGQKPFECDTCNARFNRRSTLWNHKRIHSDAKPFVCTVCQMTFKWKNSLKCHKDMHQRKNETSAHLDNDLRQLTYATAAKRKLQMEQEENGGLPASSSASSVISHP

[2] = target: T2, lin-29 (W03C9.4) (Caenorhabditis elegans) (UniProt G5EGB2)
T2 sequence: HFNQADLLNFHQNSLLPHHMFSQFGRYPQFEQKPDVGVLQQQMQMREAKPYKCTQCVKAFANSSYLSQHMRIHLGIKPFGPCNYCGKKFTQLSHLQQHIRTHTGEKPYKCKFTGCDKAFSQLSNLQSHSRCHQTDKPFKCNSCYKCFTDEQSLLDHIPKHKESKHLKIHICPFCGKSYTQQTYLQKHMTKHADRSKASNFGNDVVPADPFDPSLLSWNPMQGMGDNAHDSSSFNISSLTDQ

[3] = target: T3, K11D2.4 (K11D2.4) (Caenorhabditis elegans) (UniProt G5EBU1)
T3 sequence: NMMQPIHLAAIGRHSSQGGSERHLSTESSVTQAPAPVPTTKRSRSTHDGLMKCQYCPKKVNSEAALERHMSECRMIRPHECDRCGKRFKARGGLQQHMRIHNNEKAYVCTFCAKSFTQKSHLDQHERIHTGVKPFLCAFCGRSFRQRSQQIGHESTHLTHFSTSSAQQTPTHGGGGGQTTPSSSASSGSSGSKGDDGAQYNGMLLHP

[4] = target: T4, ztf-6 (W06H12.1) (Caenorhabditis elegans) (UniProt G5EC77)
T4 sequence: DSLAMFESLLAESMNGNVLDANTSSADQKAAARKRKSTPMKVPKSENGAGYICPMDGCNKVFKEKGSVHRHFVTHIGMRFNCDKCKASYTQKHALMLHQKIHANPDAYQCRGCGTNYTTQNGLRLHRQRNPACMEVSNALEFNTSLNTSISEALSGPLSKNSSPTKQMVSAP

[5] = target: T5, T22C8.4 (T22C8.4) (Caenorhabditis elegans) (UniProt Q22677)
T5 sequence: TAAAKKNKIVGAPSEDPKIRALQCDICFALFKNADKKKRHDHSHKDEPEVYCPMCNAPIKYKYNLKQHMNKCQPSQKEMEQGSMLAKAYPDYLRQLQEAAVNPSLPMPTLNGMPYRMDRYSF

Sequence	binding signal (PBM E-score (-0.5 to 0.5)) [1]	binding signal (PBM E-score (-0.5 to 0.5)) [2]	also measured
CAGTGTAA (double strand) [8-mer CAGTGTAA]	0.494		
GTGTAACA (double strand) [8-mer GTGTAACA]	0.494		
AGTGTAAA (double strand) [8-mer AGTGTAAA]	0.494		
GTTTTTTA (double strand) [8-mer GTTTTTTA]		0.494	
AGTGTAAC (double strand) [8-mer AGTGTAAC]	0.491		
AAAAAAAG (double strand) [8-mer AAAAAAAG]		0.495	binding signal (PBM E-score (-0.5 to 0.5)) [3]: 0.498
AAAAAAAT (double strand) [8-mer AAAAAAAT]		0.496	binding signal (PBM E-score (-0.5 to 0.5)) [3]: 0.498
ATCTGAAA (double strand) [8-mer ATCTGAAA]			binding signal (PBM E-score (-0.5 to 0.5)) [4]: 0.492
AGCTGAAA (double strand) [8-mer AGCTGAAA]			binding signal (PBM E-score (-0.5 to 0.5)) [4]: 0.491
GTAAAAAA (double strand) [8-mer GTAAAAAA]		0.494	
CTTTACAC (double strand) [8-mer CTTTACAC]	0.494		
CATAAAAA (double strand) [8-mer CATAAAAA]		0.494	
TAGTGTAA (double strand) [8-mer TAGTGTAA]	0.495		
AGTGTAAT (double strand) [8-mer AGTGTAAT]	0.497		
GCTGAAAC (double strand) [8-mer GCTGAAAC]			binding signal (PBM E-score (-0.5 to 0.5)) [4]: 0.495
CAAAAAAA (double strand) [8-mer CAAAAAAA]		0.496	binding signal (PBM E-score (-0.5 to 0.5)) [3]: 0.498
TAAAAAAA (double strand) [8-mer TAAAAAAA]		0.498	binding signal (PBM E-score (-0.5 to 0.5)) [3]: 0.498
AATTTCAG (double strand) [8-mer AATTTCAG]			binding signal (PBM E-score (-0.5 to 0.5)) [4]: 0.493

Sequence	binding signal (PBM E-score (-0.5 to 0.5)) [1]	binding signal (PBM E-score (-0.5 to 0.5)) [2]	also measured
ATTACAAC (double strand) [8-mer ATTACAAC]	0.496		
AGAAAAAA (double strand) [8-mer AGAAAAAA]		0.494	binding signal (PBM E-score (-0.5 to 0.5)) [3]: 0.498
AAAAAACT (double strand) [8-mer AAAAAACT]		0.495	
ATTACACA (double strand) [8-mer ATTACACA]	0.493		
GAAAAAAA (double strand) [8-mer GAAAAAAA]		0.495	binding signal (PBM E-score (-0.5 to 0.5)) [3]: 0.498
TGTGTAAA (double strand) [8-mer TGTGTAAA]	0.491		
GCAAAAAA (double strand) [8-mer GCAAAAAA]		0.494	
CATTACAC (double strand) [8-mer CATTACAC]	0.494		
GCAGGGGA (double strand) [8-mer GCAGGGGA]			binding signal (PBM E-score (-0.5 to 0.5)) [5]: 0.495
GTGTAATA (double strand) [8-mer GTGTAATA]	0.497		
ATAAAAAA (double strand) [8-mer ATAAAAAA]		0.498	binding signal (PBM E-score (-0.5 to 0.5)) [3]: 0.498
AAAAAAAC (double strand) [8-mer AAAAAAAC]		0.497	binding signal (PBM E-score (-0.5 to 0.5)) [3]: 0.498
CCCTGCAG (double strand) [8-mer CCCTGCAG]			binding signal (PBM E-score (-0.5 to 0.5)) [5]: 0.483
CGTTGTAA (double strand) [8-mer CGTTGTAA]	0.493		
GCAGGGGC (double strand) [8-mer GCAGGGGC]			binding signal (PBM E-score (-0.5 to 0.5)) [5]: 0.498
AAAAAAAA (double strand) [8-mer AAAAAAAA]		0.499	binding signal (PBM E-score (-0.5 to 0.5)) [3]: 0.5
CACCCTGC (double strand) [8-mer CACCCTGC]			binding signal (PBM E-score (-0.5 to 0.5)) [5]: 0.49
TATAAAAA (double strand) [8-mer TATAAAAA]		0.494	
